From the domain aggregation screens of Martell et al. (2025)

Assay: soluble fraction after stress (log2 fold change); higher = more stays soluble; pooled small domains, quantitative proteomics
Conditions: stress: pH 4
Procedure, shortened: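 Pooled custom libraries of small protein domains were subjected to pH 4 and measured by high-throughput quantitative proteomics. The log2 fold change in soluble amount per domain is reported, higher values meaning more remained soluble. This is used as a measure of aggregation propensity.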

Row | Sequence | soluble fraction (log2)
1 | HMNRKLKAKATREKIYKSAEKLFSQNDYNKVSVDAIVEAAGVAKGSFYVHFASKDALIAMLINDH | -0.012
2 | HMKRLLLPGDLAGVRRHLLDRENSFHILRVLRLARGSTIEAMDDAGNRFSATLAGVKAGRALFDLAAKI | -0.245
3 | HMRLADHVVEKLLALVQERGLQPGQKLPAERQLAEVLGVSRTSVREAIQKLVSQGVLSARRGDGTYVQS | 0.0683
4 | HMELEIPGELIEAVRRLRDERQRMRLAGELAARQIQMHPERYTEASIDPVQTWDELRARILALA | -0.582
5 | HMIGHIGSAVMLNAKLRPRLPLLHVLALTQSLGERLSAAEAQPEVYRWSDPGQSRVIAEFEGGRLTRWRLE | -0.968
6 | HMTINQIDPASGRKVGYWIITGEMKPKEGFSPDNKIEEGIYVNSRKSGKWIKYWPNGNVRSEIIYKNGR | -0.0109
7 | HMSVTSEIGAKIKYFRKSKHFSLQEMADLLYKSKSTLSKYENGQISIDIETLYAIAKVLGVHVEQLLYSEP | 0.222
8 | HMKKDLATYAYEHIKQMVIDRELMPGERIQQEVLARELGISRTPLVTALNRLASENLVELEANKGFSVRRF | 0.429
9 | HMLSVTLTVLPQQAGERLDAFAAAESTLSRSAAAKLIEDGQITVNGARAAKNYRLRAGDVIEIDEPEPI | 0.194
10 | HMKKPRKTSRKSIENAAIFYLQRFSSSIENLRRVLMRRVYRSAQYHNTKPEEDAKIVDSIIYRLIETGVL | -0.0658
11 | HMPTNVYSIIGKEGIVLESIDNLNSTGKVKVNGELWSAISDSNIEKGETIKVLSVNGVKLKVEKVN | -0.0569
12 | HMDALIWYVSRGQQKFGPFNYFGVLKALQDKSVFEFDYVWKEGTENWVRLAEHELFSQEKVRELLA | -0.679
13 | HMDNQSIVRINDGDGAWRQRLGEHFGHLPRDRKRGEIVLQVDAADWRWLQTQGYAPRFDAALSAQLQTTL | -0.147
14 | HMASANMPDVLGLDAETAKQVLAAKGFTKVEIYPMESSEPANRVVRQSEDRDTMVALTKEILLGVSNGS | -0.0377
15 | HMSAEGPALADWVVRDAHSIGAKITNSVAQLLIDRVGHNQQLLHNELQKLALVQTDISAELVKTMSHY | -0.0595
16 | HMSDRESYGRYRNVSLTLSEYESLKNEYPLYADKYIERLSEYMETAGKHYNNHYATILSWLSKDIK | -0.8
17 | HMDKSLDFASIKSVEIATGRKFGWHALKKWSKSNSSEIKTIPDPNFGEVKTYHKDAWLAVYNINLSPILD | -0.0629
18 | HMSEMVIPEDFLAALETNPQAKAFYATLNRQNQYAVYHRLQTAKRPETRAKRIADFVAQLAAGKRF | -0.00136
19 | HMITGSIQPKNGKYYAVLNLYDHTGKRRPKWVSTGYTVKGNKKKAQEVLNELTRRYSAQLPPSK | 0.22
20 | HMPKRSKDEAELEFLEMLRDNQVDSTWSFGKIISQLGSTDPRYWMVDDDPLWKRQIFEKYLSNR | -1.79
21 | HMEIYEEDRTKVVNDLMDQILNRQITMDAAATKFINIRNSLGTTITKEDEQNLEMLRGLIFDKT | -1.17
22 | HMGESYGPVRRGETLWSIAEKVKPAGVSTQKELAAIYAANPQAFIRGDINLLKAGAELRLPSPEAL | -0.0107
23 | HMSQTVKYVNTTSGLNMRTGPATSYAKITTIAYGQSVNVLSTSNGWSKINYSGSTGYVSSQYLQSKKPS | 0.183
24 | HMQASIPQSQKDALAKELQALPPHGRNRVLSTFRQQFNISSEKISEFITTPEHLSFIRSKIAEVESDS | -0.529
25 | HMSKAYLSVESNISGARVFVDGQKEGTTPLSDVLLSAGEHLILVKKQGYETYQKRVRFQKGRSMSLYVDLS | -0.0554
26 | HMKQLRVLGIVKAGSILKNSDGSIEFVIEDSGKSLLVKYKGVIPDIFKDGVEAVVEGDLRGSVFNADKLF | -0.2
27 | HMLPDGEAFVKVNTSLNIRTGPWGQIVGWFHNNDKVKIIGRDGDWYKISHNGQTRYIHSRYVSSSR | -0.0297
28 | HMDQHERQQLLIHIAGGEREALAELYQRTRSAVYGLALSYLKNAHDAQDLTRDVYVQVWDRA | 0.0408

Row | Sequence | soluble fraction (log2)
29 | HMKNYYELLGVAREASQDQIKKAYRKLARKYHPDVSKEADAETRMQELNVAYDTLSDAEKKREYDFQLDHP | 0.218
30 | HMNNVDIMGRMVYDDQHREVINFGKYKGVLVTEVLKKDPGYFSWIQQGDFPSDMKRIMMAIKLRM | -0.72
31 | HMGQVEVPDVVGMTQERAITTLTEAKLVAQIQLTPADVAKGLVAAQSPRAGLKIGEGSFVTIEVSTGPVI | 0.229
32 | HMNTVAGAISDLSFKVRGSEDIEKLNRLKALSIQAKLDVQGQEEAERLISELEAKYGSLGMTVDKVSGKIA | 0.192
33 | HMGKPTPASQVATRWLAGDLPETLPVAGPAPSFETLARSVSTDFHPRAVLQELLRLGVAEEADGRVRLLK | -0.0325
34 | HMHPVTGRIGTVTAANGLNLRADSSEYANVVATLGYGVDVTVTGERINGFYPVRVGTLSGYVSADYVSFNS | -0.299
35 | HMSQLSQIVDAFGGLRPFARALNKPPSTVQYWIEKGGIPASVVSPIMKLSEEKGLGLSRDQVSAAVS | 0.0542
36 | HMITANNYFNEVERIGVETLPETLRKGHDLVVRSTNSGTNWSNYQNNESIRKVIDLYLQKLNEYVSTST | -0.676
37 | HMQISGIHLYERRITKDDEWAERKLSEISLAGSLVILILRNEHVVIPNGETVLKENDLLYISD | -1.38
38 | HMKYEFEFPYWSNKEAKHMIVTINYPNGTRATASIQDNDGSNPDYKRIMEEFGEEQIDANTEEGLKRR | -0.816
39 | HMSAPLKELGNDPESGKPIVVKDGRFGAYVTDGETNATLRKTDAVESLTPERAAELLAEKRAKG | 0.199
40 | HMEKTKLPNLVDFTYRQAEALLQTHGLKVGKVERVPDVGQTVIKAKYKGKVISWGTELNKGEKIDLVIGKG | 0.13
41 | HMHVGVWIMNEKGEILLEQRASNKKVDPNKWARIGGHVDAGEKPIQAIQREILEEIGVKIPLENFIVLET | -0.592
42 | HMEVTENQEKHAYQEAMDQALRFLAPRFLSRAELTRKLLQKEHDRDVIDAVIDRLEELDYVDDAR | -0.69
43 | HMLHMKAALGELMSIPGMRSELAGTLFDRGYTSLAQLRAATLDDLERVNGLERADARRIHDFLRKS | -0.066
44 | HMQQKNWIVRDGDGKIYGPFTTEQVLVQIDRGYFVGGEEVALYPGGRWIAISGAPEFYDRLLDALAMEG | -1.29
45 | HMEDPKLAQLTEQERKILDLIADGLTNRQIAEKMFLAEKTVKNYVSTILAKMGMSNRSEAAAYVARLEAG | -0.292
46 | HMTGKVSHGERKSVLVSLAGSMRARGMSIDAVRAGLYADNEKRFDPPLDERDIEDVLNSAKKWGDP | -0.0814
47 | HMQDYISAEEAKSAALSASQVDSAGAAFSAAELGEKNGIPYYEVAFTADGLEYRYAIDAQTGTVIESSSSG | -0.164
48 | HMKNLTEVEYSEFLESIAQDRVSKVQVDGLIIRGEMNDGQRFETVQPQVTDKALIDDMVNHRVDFSGARP | -0.726
49 | HMGKIILLFSDDDGVFDTALYRVRNYDGHRFAQSLGNAEMKWRHSEDEYFDFVLTSLREDGYDIEEIE | -0.686
50 | HMKLASIGDNIHTLRKNKGLTQSQLAGKLGVNVDTISNYEKGVSTPDFDIVEKLVNIFNVDAHSLLFK | -0.351
51 | HMKNDIQLKHDVEEELQWDPAVDASRFAVQAKDGVVTLSGGVDTFADKHAAEEAIRRVAGVTALVIHVDV | -0.271
52 | HMSDQTYVKDPETGEIFRVHKRVWETGEFWRDPVWGNILGGVERGSELERLLREEGWRPLQQSLEGFPEQ | -0.276
53 | HMKIRKAVIPAAGLGTRVLPASKSIPKEMLPIVDKPVIQYIVEEAVKAGITEILIITGRGKGAIEDHFDRS | 0.0275
54 | HMTGGLTQEQISQLRMLTPQQIEQLRQLQPQQVEMLRQLRPEQVMLLTQLEPQQIMAFMRLEPSVIMQL | -0.657
55 | HMGIRQGKVTSTFVNVRSGASTANAKVGELHKGDVVSLIEKVANFWRIGPGQFVSADYIQVLAS | -0.0122
